Substitutions are numbered along the chain they refer to.
Key:
[1] = molecular target: human adenosine receptor A1 (human) (UniProt P30542); assay: flow cytometry on HEK293T-A1 cells; isotype control 10 nM; duplicate 1
[2] = molecular target: human adenosine receptor A1 (human) (UniProt P30542); assay: flow cytometry on HEK293T-A1 cells; isotype control 10 nM; duplicate 2
[3] = molecular target: human adenosine receptor A1 (human) (UniProt P30542); assay: flow cytometry on HEK293T-A1 cells; isotype control 50 nM; duplicate 1
[4] = molecular target: human adenosine receptor A1 (human) (UniProt P30542); assay: flow cytometry on HEK293T-A1 cells; isotype control 50 nM; duplicate 2
[5] = molecular target: T1, human adenosine receptor A3 (human, UniProt P0DMS8 1-318); assay: flow cytometry on HEK293T-A3 cells; isotype control 10 nM; duplicate 1
T1 construct: whole, on cells; the tag is not described; also called A3R; human A3R
T1 sequence (looked up): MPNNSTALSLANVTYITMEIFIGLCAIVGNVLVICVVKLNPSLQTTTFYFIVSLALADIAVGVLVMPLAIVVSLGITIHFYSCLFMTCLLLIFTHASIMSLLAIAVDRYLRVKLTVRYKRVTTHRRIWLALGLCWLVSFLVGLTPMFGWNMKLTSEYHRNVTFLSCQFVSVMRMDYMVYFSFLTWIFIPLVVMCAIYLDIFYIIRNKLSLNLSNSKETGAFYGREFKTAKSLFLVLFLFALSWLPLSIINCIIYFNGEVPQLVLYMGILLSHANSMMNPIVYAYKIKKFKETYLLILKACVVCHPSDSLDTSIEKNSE

[6] = molecular target: T1, human adenosine receptor A3; assay: flow cytometry on HEK293T-A3 cells; isotype control 10 nM; duplicate 2
[7] = molecular target: T1, human adenosine receptor A3; assay: flow cytometry on HEK293T-A3 cells; isotype control 50 nM; duplicate 1
[8] = molecular target: T1, human adenosine receptor A3; assay: flow cytometry on HEK293T-A3 cells; isotype control 50 nM; duplicate 2
[9] = molecular target: T2, human adenosine A2A receptor (A2aR) (human, UniProt P29274 1-412); assay: flow cytometry on HEK293T-A2A cells; isotype control 10 nM; duplicate 1
T2 sequence (P29274 whole entry): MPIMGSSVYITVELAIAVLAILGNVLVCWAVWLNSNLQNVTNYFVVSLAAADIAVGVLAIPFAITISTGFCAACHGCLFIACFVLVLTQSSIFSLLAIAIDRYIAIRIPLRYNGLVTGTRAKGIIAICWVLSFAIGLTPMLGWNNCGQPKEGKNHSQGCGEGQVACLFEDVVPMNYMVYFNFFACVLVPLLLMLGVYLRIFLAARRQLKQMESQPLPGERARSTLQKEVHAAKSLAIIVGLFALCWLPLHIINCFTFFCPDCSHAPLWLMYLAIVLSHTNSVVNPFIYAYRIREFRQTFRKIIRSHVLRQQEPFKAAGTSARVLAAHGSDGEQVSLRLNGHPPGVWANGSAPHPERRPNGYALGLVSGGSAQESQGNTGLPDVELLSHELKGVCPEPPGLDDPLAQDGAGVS

[10] = molecular target: T2, human adenosine A2A receptor (A2aR); assay: flow cytometry on HEK293T-A2A cells; isotype control 10 nM; duplicate 2
[11] = molecular target: T2, human adenosine A2A receptor (A2aR); assay: flow cytometry on HEK293T-A2A cells; isotype control 50 nM; duplicate 1
[12] = molecular target: T2, human adenosine A2A receptor (A2aR); assay: flow cytometry on HEK293T-A2A cells; isotype control 50 nM; duplicate 2
[13] = molecular target: T3, human adenosine receptor A2B (human, UniProt P29275 1-332); assay: flow cytometry on HEK293T-A2B cells; isotype control 10 nM; duplicate 1
T3 construct: whole, on cells; the tag is not described; also called A2bR; human A2bR
T3 sequence (looked up): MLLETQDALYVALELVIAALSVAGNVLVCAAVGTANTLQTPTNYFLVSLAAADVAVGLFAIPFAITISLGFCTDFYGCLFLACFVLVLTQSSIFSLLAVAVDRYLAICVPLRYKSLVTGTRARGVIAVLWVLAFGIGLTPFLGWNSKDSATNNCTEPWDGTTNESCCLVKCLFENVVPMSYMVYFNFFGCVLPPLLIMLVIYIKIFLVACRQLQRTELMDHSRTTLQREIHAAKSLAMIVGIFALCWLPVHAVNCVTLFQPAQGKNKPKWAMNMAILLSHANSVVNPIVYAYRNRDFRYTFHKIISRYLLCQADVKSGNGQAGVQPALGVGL

[14] = molecular target: T3, human adenosine receptor A2B; assay: flow cytometry on HEK293T-A2B cells; isotype control 10 nM; duplicate 2
[15] = molecular target: T3, human adenosine receptor A2B; assay: flow cytometry on HEK293T-A2B cells; isotype control 50 nM; duplicate 1
[16] = molecular target: T3, human adenosine receptor A2B; assay: flow cytometry on HEK293T-A2B cells; isotype control 50 nM; duplicate 2
[17] = molecular target: T4, mouse adenosine receptor A2A (mouse, UniProt Q60613 1-410); assay: flow cytometry on HEK293T-mA2A cells; isotype control 10 nM; duplicate 1
T4 construct: whole, on cells; the tag is not described; also called mouse A2aR; mouse A2R
T4 sequence (Q60613 whole entry): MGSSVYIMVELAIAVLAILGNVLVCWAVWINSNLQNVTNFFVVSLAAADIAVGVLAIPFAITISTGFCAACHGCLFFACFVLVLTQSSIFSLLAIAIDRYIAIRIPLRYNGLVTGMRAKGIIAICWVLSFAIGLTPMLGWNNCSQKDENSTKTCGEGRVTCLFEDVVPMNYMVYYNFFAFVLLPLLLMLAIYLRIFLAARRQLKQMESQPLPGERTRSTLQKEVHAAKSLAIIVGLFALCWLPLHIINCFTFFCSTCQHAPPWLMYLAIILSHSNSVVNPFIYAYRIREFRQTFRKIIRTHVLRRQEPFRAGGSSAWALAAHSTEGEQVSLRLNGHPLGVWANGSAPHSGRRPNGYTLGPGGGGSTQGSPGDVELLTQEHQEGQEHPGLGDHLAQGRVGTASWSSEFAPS

[18] = molecular target: T4, mouse adenosine receptor A2A; assay: flow cytometry on HEK293T-mA2A cells; isotype control 10 nM; duplicate 2
[19] = molecular target: T4, mouse adenosine receptor A2A; assay: flow cytometry on HEK293T-mA2A cells; isotype control 50 nM; duplicate 1
[20] = molecular target: T4, mouse adenosine receptor A2A; assay: flow cytometry on HEK293T-mA2A cells; isotype control 50 nM; duplicate 2
[21] = molecular target: human adenosine receptor A1 (human) (UniProt P30542); assay: flow cytometry on HEK293T-A1 cells; anti-FLAG 2 ug/mL, positive control; duplicate 1
[22] = molecular target: human adenosine receptor A1 (human) (UniProt P30542); assay: flow cytometry on HEK293T-A1 cells; anti-FLAG 2 ug/mL, positive control; duplicate 2
[23] = molecular target: T1, human adenosine receptor A3; assay: flow cytometry on HEK293T-A3 cells; anti-FLAG 2 ug/mL, positive control; duplicate 1
[24] = molecular target: T1, human adenosine receptor A3; assay: flow cytometry on HEK293T-A3 cells; anti-FLAG 2 ug/mL, positive control; duplicate 2
[25] = molecular target: T2, human adenosine A2A receptor (A2aR); assay: flow cytometry on HEK293T-A2A cells; anti-FLAG 2 ug/mL, positive control; duplicate 1
[26] = molecular target: T2, human adenosine A2A receptor (A2aR); assay: flow cytometry on HEK293T-A2A cells; anti-FLAG 2 ug/mL, positive control; duplicate 2
[27] = molecular target: T3, human adenosine receptor A2B; assay: flow cytometry on HEK293T-A2B cells; anti-FLAG 2 ug/mL, positive control; duplicate 1
[28] = molecular target: T3, human adenosine receptor A2B; assay: flow cytometry on HEK293T-A2B cells; anti-FLAG 2 ug/mL, positive control; duplicate 2
[29] = molecular target: T4, mouse adenosine receptor A2A; assay: flow cytometry on HEK293T-mA2A cells; anti-FLAG 2 ug/mL, positive control; duplicate 1
[30] = molecular target: T4, mouse adenosine receptor A2A; assay: flow cytometry on HEK293T-mA2A cells; anti-FLAG 2 ug/mL, positive control; duplicate 2
tumor = conditions: mice treated with A2aR antagonist; background statement; cited from earlier work
[31] = molecular target: T2, human adenosine A2A receptor (A2aR); assay: cell-based or functional assay
[32] = molecular target: T1, human adenosine receptor A3; assay: flow cytometry on HEK293T cells stably expressing human A3R
[33] = molecular target: T3, human adenosine receptor A2B; assay: flow cytometry on HEK293T cells stably expressing human A2bR
[34] = molecular target: T4, mouse adenosine receptor A2A; assay: flow cytometry on HEK293T cells stably expressing mouse A2aR
human A2aR = molecular target: T5, human A2aR (Homo sapiens, UniProt P29274); assay: FACS screening of hybridoma clones on human A2aR-expressing Expi293 cells; format: binding; conditions: antibodies from hybridoma clones
T5 construct: expressed in transfected cells; host or cells: Expi293
T5 sequence (P29274 whole entry): as the sequence (P29274 whole entry) above
Experimental: (§1) Serum titration was performed using Fluorescence-Activated Cell Sorting (FACS) pursuant to standard procedures. Human A2aR-expressing Expi293 cells were first added to 96-well plate (1×10^5 cells per well), 50 μl of serial diluted serum (1:50, 1;150, 1:450, 1:[…], 1:12150) from each individual mouse was incubated with cells for 30 min. on ice. After washing with FACS buffer (2% Fetal bovine serum, 2 mM EDTA in PBS), Alex Fluor 647-conjugated anti mouse IgG was added and incubated for 20 min on ice. Cells were resuspending with 100 μl FACS buffer after two times wash and ready for FACS analysis (BD LSR II Flow Cytometer, HTS). […] (MFI: mean fluorescence intensity).
(§2) Primary screening of the hybridoma supernatants in the 96-well plates was performed using the same FACS procedure as described for serum titration except following changes: 1) Human A2aR-expressing Expi293 cells (expressing GFP) were mixed at 1:1 ratio with parental Expi293 (no A2aR expression) and added to 96-well plates (2×10^5 cells per well), 2) 50 μl hybridoma supernatant transferred from each well of 96-well plates was incubated with cells for 30 min. on ice.
(§3) Sub-cloning was performed by limiting dilution method. In short, the positive wells identified by FACS were seeded into 96-well plate at an average density of 1 cell/well. The […] was placed in incubator for 7-10 days to allow the growth of the cells. The growth of cells was monitored periodically. At about day 4, the wells on the plate were observed under phase contrast microscopy and the wells which appeared to have single colony growing (i.e., only one clumping of hybridomas) were recorded. The cells from the single colony wells were screed by FACS using the same procedure as described for primary screening of hybridoma when the confluence of the cell reached about 50%.

parental Expi293 cells = assay: FACS screening of hybridoma clones on parental Expi293 cells; format: binding; conditions: antibodies from hybridoma clones
Experimental: as §1, §2, §3

human adenosine receptor A1 (human), sequence (P30542 whole entry): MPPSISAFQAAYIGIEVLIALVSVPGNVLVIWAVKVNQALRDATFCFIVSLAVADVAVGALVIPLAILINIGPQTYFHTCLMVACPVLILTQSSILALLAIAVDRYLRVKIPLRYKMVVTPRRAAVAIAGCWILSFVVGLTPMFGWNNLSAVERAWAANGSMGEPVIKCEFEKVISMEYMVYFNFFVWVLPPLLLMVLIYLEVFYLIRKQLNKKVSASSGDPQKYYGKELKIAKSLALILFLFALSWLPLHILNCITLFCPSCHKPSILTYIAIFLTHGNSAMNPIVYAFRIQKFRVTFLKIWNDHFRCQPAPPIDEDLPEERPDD

For mouse IgG2a isotype control (antibody), the Geo Mean [1] was 2.48, the Geo Mean [2] was 2.24 and the Geo Mean [3] was 2.5. It also gave a Geo Mean [4] of 2.7, a Geo Mean [5] of 1.9 and a Geo Mean [6] of 1.81. It also gave a Geo Mean [7] of 1.87, a Geo Mean [8] of 1.84 and a Geo Mean [9] of 2.97. The Geo Mean [10] was 2.82, the Geo Mean [11] was 2.92 and the Geo Mean [12] was 2.83. For the same molecule, the Geo Mean [13] was 2.42, the Geo Mean [14] was 2.41 and the Geo Mean [15] was 2.33. It also gave a Geo Mean [16] of 2.69, a Geo Mean [17] of 2 and a Geo Mean [18] of 2.39. It also gave a Geo Mean [19] of 2.05 and a Geo Mean [20] of 2.06.

Work on Anti-FLAG antibody (Abcam, ab72469) yielded a Geo Mean [21] of 53.3, a Geo Mean [22] of 121 and a Geo Mean [23] of 48.2. It also gave a Geo Mean [24] of 47.4, a Geo Mean [25] of 183 and a Geo Mean [26] of 223. It also gave a Geo Mean [27] of 78.6, a Geo Mean [28] of 50.1 and a Geo Mean [29] of 70.4. For the same molecule, the Geo Mean [30] was 105.

In the case of `Nc1nc(NCCc2ccc(O)cc2)nc2nc(-c3ccco3)nn12` [ZM241385], the tumor growth (tumor) is given as “significant delay in tumor growth”.

B1: anti-human A2aR monoclonal antibody 3F6-9G5 (mouse IgG2a format) (antibody, V domains shown)
VH: QVQLQQPGTELVKPGAPVRLSCKASGFAFTSYWMNWVRQRPGRGLEWIGRIDPSDSEAHYHHKFWGKATLTVDKSSSTVYIQLNGLTSEDSAVYYCLRSLYGKGDYWGHGTTLTVSS
VL: DVLMTQTPLSLSVRLGDQASISCRSSQSLVHRNGNTYLEWYLQRPGQSPKLLIYKVSNRFSGVPDRFSGSGSGTDFTLKISRVEAEDLGVYYCYQGSHVPLTFGSGTKLEIK
notes: Tested as whole mouse IgG2a / kappa, purified from hybridoma supernatant or made recombinantly in Expi293 cells
In the case of B1, the “IC50 (M), cAMP-Glo assay of NECA-induced cAMP in HEK293 cells stably expressing human A2aR” value [31] is reported as 1.57e-09 M, the binding result [32] is reported as “no binding (tested: 2, 10 and 50 nM tested)” and the binding result [33] is reported as “no binding (tested: 2, 10 and 50 nM tested)”. B1: no binding (tested: 2, 10 and 50 nM tested) [34].

B2: anti-human A2aR monoclonal antibody 3F8-12E9 (antibody, mouse IgG2a, V domains shown)
VH: B1 VH with R19K, A28T, S31R, R38K, A58T, H61N, V79A, G85S, H109Q
VL: B1 VL with R14G, L29I, R32S
For B2, the “IC50 (M), cAMP-Glo assay of NECA-induced cAMP in HEK293 cells stably expressing human A2aR” value [31] was 4.35e-09 M, the “binding to human A2aR-expressing cells (FIG. 2)” value (human A2aR) was “specific binding” and the “binding to parental Expi293 cells (FIG. 2)” value (parental Expi293 cells) was “not to parental Expi293 cells”.

Source: patent US20230340132A1, “ANTI-ADENOSINE RECEPTOR (A2aR) ANTIBODIES” (NA Biotech Corp, priority 2020, published 2023)
